Test results: publication doi:10.1101/058016
pKd: −log10 of the molar value. One block for each substance: values may come before it.

Experiments:
[1] = biological target: calmodulin on CaM-Sepharose 4B (UniProt P0DP23); assay: pull-down
[2] = biological target: PDZ3 of PSD-95 (residues 302-402), soluble recombinant domain (murine) (UniProt Q62108); assay: SPR
[3] = biological target: PDZ1 of PSD-95 (residues 61-151), soluble recombinant domain (murine) (UniProt Q62108); assay: SPR
[4] = biological target: calmodulin (CaM), used with Ca2+ (UniProt P0DP23); assay: SPR
[5] = biological target: PDZ123 (PSD-95 residues 61-402)-HaloTag fusion on HaloLink resin (murine) (UniProt Q62108); assay: pull-down
[6] = biological target: PDZ123 of PSD-95 (residues 61-403), soluble recombinant fragment with all three PDZ domains (murine) (UniProt Q62108); assay: SPR

pKd [1]: 7.51
pKd [2]: 6.14
pKd [3]: 6.85
pKd [4]: 8.05
Substance: r-synGAP (soluble recombinant synGAP, residues 103-1293 of synGAP A1-α1) (domain or fragment)

percent reduction of binding relative to wild-type [5]: 50%
fold increase of KDapp over wild-type r-synGAP [6]: 4 fold
Substance: r-synGAP S1283D (domain or fragment)

fold increase of KDapp over unphosphorylated r-synGAP [6]: 10 fold
Substance: r-synGAP phosphorylated by CaMKII (domain or fragment)

pKd [1]: 6.68
Substance: sr-synGAP (C-terminal truncated synGAP, residues 103-725 of synGAP A1-α1) (domain or fragment)
